Reference: patent US8088892B2, “Inhibitors of proteins from the Rho-GEF family” (Centre National de la Recherche Scientifique (C.N.R.S.), priority 2002, dated 2012)

B1: TRIAPα: aptamer of 154 amino acids: variable region of 42 amino acids inserted into the thioredoxin protein; tested as GST fusion (protein)
chain: MSDKIIHLTDDSFDTDVLKADGAILVDFWAEWCGPAREGADGAICGYNLATLVMLGPSERVFCPLCEPCSSDIYELMGPCKMIAPILDEIADEYQGKLTVAKLNIDQNPGTAPKYGIRGIPTLLLFKNGEVASATKVGALSKGQLKEFLDANLA

How the values were obtained:
[1] = tested on: TrioGEFD2-mediated RhoA activation; experiment: RhoA activity assay (Rhotekin RBD pull-down) in COS cells; assay type: cell-based; details: COS cells co-transfected, 48 hours
Excerpt: FIG. 5B represents the inhibitory effect of TRIPα on TrioGEFD2-mediated RhoA activation in intact cells using the RhoA activity assay, COS cells were transfected with GFP-TRIPα (left line), TrioGEFD2 (middle line) or both (right line). Cell lysates were subjected to GST-pulldown using the recombinant RBD (RhoA binding domain) fragment of the RhoA-specific effector Rhotekin. The presence of the GTP-bound form of RhoA and of the total RhoA protein was detected using a monoclonal anti-RhoA antibody and is represented in the upper two panels. GFP-TRIPα and TrioGEFD2 expression in the cell lysates is shown in the lower two panels.
Quantification of the RhoA activity assay is shown in the right part of the figure. The y-axis represents the ratio between active RhoA and total RhoA, in arbitrary units.
The Inventors then wanted to assess the inhibition by TRIPα of TrioGEFD2-mediated activation of endogenous RhoA in intact cells. To do so, the RhoA activity assay was used to detect the active GTP-bound form of RhoA (Ren et al., 1999). Briefly, COS cells were transfected as described in FIG. 5A with TrioGEFD2 in absence or in the presence of GFP-TRIAPα. 48 hours after transfection, cell lysates were subjected to GST-pull down using 20 μg of the recombinant RBD (RhoA binding domain) fragment of the RhoA-specific effector Rhotekin, that binds only to the activated GTP-bound form of RhoA.

[2] = biological target: T1, TrioGEFD2 (DH2PH2, amino acids 1848-2298) (Homo sapiens, UniProt O75962); experiment: Binding specificity of aptamers in yeast (two-hybrid, growth on selective medium); parameters: key to Binding in yeast: +++^1 and +^1 represent respectively a full and a partial (see FIG. 1) binding capacity; +++^1 and +^1 represent respectively a full and a partial (see FIG. 1) binding capacity; −−^1 represents a lack of binding
T1 construct: TrioGEFD2 (DH2PH2, amino acids 1848-2298); expressed in transfected cells; host or cells: yeast strain EGY048
Excerpt: Trx represents the thioredoxin protein with no inserted peptide.
In order to identify specific inhibitors of TrioGEFD2, a recently developed strategy was used, this strategy being derived from the yeast two hybrid system, where the cDNA library of preys has been replaced by a combinatorial library of short peptides (20 amino acids) in fusion with the bacterial protein thioredoxin A (Colas et al., 1996). This strategy has been successfully used to isolate specific inhibitors of the cyclin-dependent kinases (Cdks), the cell cycle transcription factor E2F, or the viral HPV16 E6 oncoprotein and HBEV core protein (Colas et al., 1996; Butz et al., 2001; Fabrizzio et al., 1999; Geyer et al., 2000). The TrioGEFD2 bait was constructed as follows: plasmid pMTHATrio1848-2298 (Bellanger et al., 1998) was digested with EcoRI/XhoI and the insert cloned in pEG202EcoRI/XhoI to generate the bait pEG202TroGEFD2. Yeast strain EGY048 (Colas et al., 1996) was transformed with pEG202TrioGEFD2 and subsequently with the library of Thioredoxin constrained aptamers according to standard procedures (Ito et al., 1983). After transformation, cells were allowed to recover for 4 hours in galactose containing medium before plating on selective galactose medium. Of the 2×10^6 screened colonies, those growing in the selective medium were recovered and retested for interaction. […]

Molecule	Inhibition of TrioGEFD2-mediated RhoA activation in intact cells [1]	Binding in yeast ([2]; RhoGEF TrioDH2PH2)	Binding to TrioGEFD2 (DH2PH2) in yeast ([2]; growth on selective medium)
AREGADGAICGYNLATLVMLGPSERVFCPLCEPCSSDIYELM [TRIPα, 42-amino acid peptide corresponding to the variable region of TRIAPα]	able to inhibit TrioGEFD2-mediated RhoA activation		
B1		+++^1	binding to TrioGEFD2
